First the molecules themselves.
B1: Twister Ribozyme (parent)
chain: AACACUGCCAAUGCCGGUCCCAAGCCCGGAUAAAAGUGGAGGGGGCGG

Variants of B1 are the subject of the data set. In words: self-cleavage, relative activity (ratio to wild type); higher = more cleavage; co-transcriptional.
G17U C25A: the self-cleavage is 0.0904.

For A1G C46U, the self-cleavage amounted to 0.393.

As to C3G G7C, the self-cleavage is 0.0501.

C15G G29C: the self-cleavage was 0.0981.

Take A32U G43C: the self-cleavage is 0.139.

In the case of C3G A11U, the self-cleavage was 0.762.

With A22G G29A, the self-cleavage is 0.221.

Take C19G U31G: the self-cleavage was 0.467.

As for C15A C27U, the self-cleavage was 0.0943.

A30C G47U: the self-cleavage is 0.48.

With G17U G44A, the self-cleavage stood at 0.219.

Turning to G42C C46U, the self-cleavage was found to be 0.463.

Regarding A33G G45U, the self-cleavage is 0.782.

As for A23C A32C, the self-cleavage was found to be 0.22.

Take C5U A11G: the self-cleavage was found to be 0.77.

In the case of C26A C46G, the self-cleavage came to 0.358.

For G16U G38C, the self-cleavage amounted to 1.02.

Regarding A23G G24U, the self-cleavage came to 0.063.

As for C14U C15U, the self-cleavage was 1.51.

As to A2U G42C, the self-cleavage is 0.134.

Turning to A10U A22U, the self-cleavage is 0.829.

With C5G G47C, the self-cleavage came out at 0.269.

Consider U37C G44U, for which the self-cleavage is 0.768.

With C19G C27G, the self-cleavage worked out at 0.0733.

As for A32G G44A, the self-cleavage worked out at 0.929.

C15G G38C: the self-cleavage was determined as 0.0527.

On to U31G C46U, for which the self-cleavage is 0.928.

On to U12C U31G, for which the self-cleavage is 0.954.

Take A10C U37G: the self-cleavage worked out at 0.692.

Take A10C U37A: the self-cleavage stood at 0.881.

As for A11C U12G, the self-cleavage was found to be 0.971.

Consider C19G G29U, for which the self-cleavage came to 0.29.

C20A C21U: the self-cleavage is 0.0931.

For U6A G16U, the self-cleavage turned out to be 0.43.

For the variant U6G G13A, the self-cleavage was determined as 0.086.

On to A1U A10U, for which the self-cleavage came to 0.0883.

As for A11U G44A, the self-cleavage was found to be 0.977.

Regarding A22U G42U, the self-cleavage was 0.191.

For the variant A35U G43A, the self-cleavage worked out at 0.25.

In the case of C9U A32U, the self-cleavage worked out at 0.585.

As for A23U A40U, the self-cleavage turned out to be 0.0967.

A22C A33G: the self-cleavage stood at 0.802.

Take C3G C9A: the self-cleavage is 0.0934.

Consider G13A G36A, for which the self-cleavage was 0.162.

Turning to C3G C26G, the self-cleavage turned out to be 0.0704.

With A11C C21A, the self-cleavage came to 0.0812.

For the variant A4G G43A, the self-cleavage was 0.165.

Regarding C25G G45A, the self-cleavage was 0.132.

As to A4G G39A, the self-cleavage amounted to 0.322.

With G13C G45C, the self-cleavage worked out at 0.138.

Regarding C9G G17A, the self-cleavage is 0.103.

Regarding A11G C21U, the self-cleavage is 0.12.

Regarding A22C A30G, the self-cleavage is 1.16.

On to A10C G45A, for which the self-cleavage turned out to be 0.881.

As for G24A G42U, the self-cleavage stood at 0.091.

Turning to U37A G38C, the self-cleavage came out at 0.551.

For the variant C14G A30C, the self-cleavage stood at 0.16.

In the case of U6C G7U, the self-cleavage was found to be 0.0403.

For the variant G13U C27G, the self-cleavage is 0.0965.

C3G U31A: the self-cleavage worked out at 0.57.

As to U31A A35G, the self-cleavage was found to be 0.803.

Consider U12C C25U, for which the self-cleavage came out at 0.736.

Regarding A10U C26G, the self-cleavage came out at 0.264.

Consider G13A A33G, for which the self-cleavage was found to be 0.943.

For C5A G13C, the self-cleavage was determined as 0.105.

Take U6G U31G: the self-cleavage was 0.429.

Take A11G A34U: the self-cleavage came out at 0.913.

Consider A11U G43C, for which the self-cleavage amounted to 0.234.

Consider U12G A23C, for which the self-cleavage is 0.401.

With A4U G42C, the self-cleavage was 0.103.

Consider A1G G16A, for which the self-cleavage turned out to be 0.5.

With C19U U31C, the self-cleavage was 0.971.

C19G G44C: the self-cleavage turned out to be 0.27.

With G7C G41A, the self-cleavage was determined as 0.0519.

For the variant A10G G17U, the self-cleavage stood at 0.388.

A34C G36U: the self-cleavage came to 0.084.

On to C19U A35U, for which the self-cleavage was 0.972.

For the variant G7A C19G, the self-cleavage stood at 0.0847.

Turning to G7A U31A, the self-cleavage came out at 0.599.

Consider U12A C26A, for which the self-cleavage came to 0.763.

Regarding G29A A32C, the self-cleavage amounted to 0.916.

Turning to G13U G47A, the self-cleavage was determined as 0.228.

Regarding C5A A23U, the self-cleavage was determined as 0.074.

Regarding A2C A10U, the self-cleavage stood at 0.0864.

As for G36A G44U, the self-cleavage came to 0.791.

Regarding A10U G28C, the self-cleavage worked out at 0.768.

In the case of G17C C21U, the self-cleavage stood at 0.0868.

In the case of A33G G44C, the self-cleavage is 0.752.

C15A: the self-cleavage worked out at 0.801.

For A10C U12A, the self-cleavage stood at 1.24.

As for G7U G42C, the self-cleavage is 0.0955.

As to U18C G29A, the self-cleavage is 0.275.

Consider C19A A32U, for which the self-cleavage turned out to be 0.189.

As to C25A G43A, the self-cleavage worked out at 0.0661.

On to G7U C9G, for which the self-cleavage came to 0.0496.

As for G7U G38A, the self-cleavage amounted to 0.0965.

For A11U U31A, the self-cleavage came out at 0.918.

A22G A33C: the self-cleavage was 0.147.

For the variant G16A G36U, the self-cleavage was 0.174.

On to C9G G41A, for which the self-cleavage is 0.168.

Take G41A G48A: the self-cleavage worked out at 0.332.

With C27U G43A, the self-cleavage was 0.211.

Consider C8U A33C, for which the self-cleavage is 0.447.

As to C9U G38U, the self-cleavage is 0.395.

In the case of G16A U31G, the self-cleavage is 0.996.

Take C9A A32U: the self-cleavage came out at 0.558.

For the variant A11U C14G, the self-cleavage is 0.203.

Consider C5G C8G, for which the self-cleavage turned out to be 0.0701.

As for A11C G38A, the self-cleavage was 0.768.

With A22C A35G, the self-cleavage was found to be 1.02.

For U6A G17U, the self-cleavage came to 0.101.

For G13A G24U, the self-cleavage is 0.13.

On to C8G C15G, for which the self-cleavage amounted to 0.062.

For the variant C9G A34G, the self-cleavage worked out at 0.238.

As for A4G G17A, the self-cleavage is 0.473.

Turning to A32G A35C, the self-cleavage worked out at 0.914.

Turning to G7U C25G, the self-cleavage came to 0.401.

On to G39C G45A, for which the self-cleavage is 0.12.

As for A2U C5A, the self-cleavage was 0.13.

As for A11G U37C, the self-cleavage is 0.529.

Regarding G29U G36U, the self-cleavage worked out at 0.212.

Consider C14G C25U, for which the self-cleavage stood at 0.0566.

A22U C27A: the self-cleavage stood at 0.159.

On to U12G G13C, for which the self-cleavage stood at 1.05.

Regarding C25G A34U, the self-cleavage was 0.158.

C5U G44A: the self-cleavage turned out to be 0.748.

Take A30C U31C: the self-cleavage was 0.841.

Consider C14U G47U, for which the self-cleavage was determined as 1.

On to A23U U37C, for which the self-cleavage worked out at 0.0907.

Regarding A23U U37A, the self-cleavage stood at 0.178.

In the case of A35C U37C, the self-cleavage came out at 0.592.

U37A G42U: the self-cleavage was determined as 0.153.

Take A23G A35C: the self-cleavage worked out at 0.499.

For A23U G38C, the self-cleavage is 0.499.

A4G U12G: the self-cleavage was 0.673.

On to G24A C27A, for which the self-cleavage came out at 0.0771.

C21U G29C: the self-cleavage came to 0.0653.

C9U C26U: the self-cleavage is 0.086.

Consider G16C A33C, for which the self-cleavage was found to be 0.427.

Regarding G39C G41A, the self-cleavage turned out to be 0.0895.

For the variant C5A G7A, the self-cleavage worked out at 0.0771.

As for C14U C46A, the self-cleavage amounted to 1.05.

A1U G42U: the self-cleavage was 0.0745.

For the variant A22G C25G, the self-cleavage stood at 0.0838.

With G28C A32U, the self-cleavage amounted to 0.813.

For G7U G41A, the self-cleavage worked out at 0.0662.

On to C27G G47A, for which the self-cleavage turned out to be 0.0917.

Take A2C A35C: the self-cleavage was determined as 0.064.

As to C21A G47U, the self-cleavage came out at 0.117.

C5U A32C: the self-cleavage turned out to be 0.887.

On to A4G G47A, for which the self-cleavage was 0.91.

Turning to A4G G36U, the self-cleavage worked out at 0.164.

Take C20G G28C: the self-cleavage stood at 0.171.

Regarding G24A A32U, the self-cleavage amounted to 0.0696.

Turning to G7A A35C, the self-cleavage came out at 0.493.

Turning to C20U A34C, the self-cleavage worked out at 0.0697.

On to C3A U6G, for which the self-cleavage stood at 0.121.

With C3U G47U, the self-cleavage was 0.513.

Turning to A4C C46G, the self-cleavage came out at 0.142.

For G24C G29A, the self-cleavage was found to be 0.132.

For A10U U12G, the self-cleavage was determined as 0.759.

A11U U37A: the self-cleavage stood at 1.01.

Take C8G G48A: the self-cleavage worked out at 0.227.

With C15U G38A, the self-cleavage stood at 0.831.

As to G24C A34G, the self-cleavage is 0.103.

As to C8A C26G, the self-cleavage turned out to be 0.0829.

As to C14G G29A, the self-cleavage came out at 0.182.

Take C15U A35C: the self-cleavage worked out at 0.863.

G13U G42U: the self-cleavage is 0.114.

On to G42A C46G, for which the self-cleavage was 0.232.

For C21U G39A, the self-cleavage was 0.0714.

In the case of G38U A40C, the self-cleavage turned out to be 0.127.

As for U6A A30G, the self-cleavage amounted to 0.884.

As for C20U G29U, the self-cleavage turned out to be 0.921.

Take A4U C20A: the self-cleavage was 0.0537.

The values are drawn from the RNAGym collection of RNA variant scans (doi:10.7554/elife.80360).
